Measurements from PMC3544922.
Several values for one entry are separate records, joined by “and”; a condition that tells them apart may be missing. Equal values may be shown once.

Target: recombinant HIV-1 integrase (HIV-1)
Assay: atomic force microscopy; 50 ng integrase incubated with 10 ng target DNA xkyk in binding buffer with MnCl2 at 30°C, dialysed against PBS 48 h at 4°C, digested with ScaI, adsorbed on mica with spermidine, tapping mode in air; size and volume of integrase bound on DNA (n = 123)

## recombinant HIV-1 integrase (enzyme)
  stoichiometry N: 2 and 4
